B1: TPR t1 (parent)
chain: GACCAAUCUGCCCUCAGAGCUCGAGAACAUCUUCGGAUGCAGAGGAGGCAGGCUUCGGUGGCGCGAUAGCGCCAACGUCCUCAACCUCCAAUGCAUCCCACCACAUGAUGAUGCCUGAAGAGCCUUGGUUUUUUG

Variants of: B1
Assay: polymerase ribozyme fitness, log enrichment relative to wild type (log ratio); higher = more active; in vitro selection for triplet polymerase activity
How it was run: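 To select mutant libraries of each subunit of a heterodimeric triplet polymerase ribozyme, built by PCR and transcribed, each was annealed with a biotinylated primer, partner subunit and triplets, then incubated frozen at −7 °C. Extended constructs were gel-excised, captured on streptavidin beads and amplified by RT-PCR, in one round carried out in triplicate. Illumina sequencing of input and output libraries kept genotypes with ≥10 input reads and ≥1 read per output. Fitness is the base-2 logarithm of genotype enrichment relative to wild-type enrichment, from inverse-variance-weighted replicate averages.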

| Variant | polymerase ribozyme fitness (log ratio) |
| --- | --- |
| GACCAAUCUGCCCUCAGAGGUCGAGAACAUCUUCGGAUGCAGAGGAGGCAGGCUUCGGUGGCGCGAUAGCGACAACGUCCUCAACCUCCAAUGCAUCCCACCACAUGAUGAUGCAUGAAGAGCCUUGGUUUUUUG [C20G C72A C115A] | -4.55 |
| GACCAAUCUGCCCUCAGAGGUCGAGAACAUCUUCGGAUGCAGAGGAGGCAGGCUUCGGUGGCGCGAUAGCGCCAACGUCCUCAACCUCCAAUGCAUCCCACCACACGAUGAUGCCUGAAGAGCCUUGGUUUUUUG [C20G U106C] | -4.11 |
| GACCAAUCUGCCCUCAGAGGUCGAGAACAUCUUCGGAUGCAGAGGAGGCAGACUUCGGUGGCGCGAUAGCGCCAACGUCCUCAACCUCCAAUGCAUCCCACCACAUGAUGUUGCCUGAAGAGCCUUGGUUUUUUG [C20G G52A A111U] | -3.23 |
| GACCAAUCUGCCCUCAGAGGUCGAGAACAUCUUCGGAUGCAGAGGAGGCAGGCUUCGGUGGCGCGAUAGCGCCAACGUCCUCAACCUCCAAUGCAUCCCACCACAUGAUGAUACCUGAAGAGCCUUGGUUUUUUG [C20G G113A] | -2.69 |
| GACCAAUCUGCCCUCAGAGGUCGAGAACAUCUUCGGAUGCAGAGGAGGCAGGCUUCGGUGGCGCGAUAGCGCCAACGUCCUCAACCUCCAAUGCAUCCCACCACAUGAUGAUCCCUGAAGAGCCUUGGUUUUUUG [C20G G113C] | -1.32 |
| GACCAAUCUGCCCUCAGAGGUCGAGAACAUCUUCGGAUGCAGAGGAGGCAGGCUUCGGUGGCGCGAUAGCGCCAACGUCCUCAACCUCCAAUGCAUCCCACCACAUGAUGAUGCCCGAAGAGCCUUGGUUUUUUG [C20G U116C] | -3.78 |
| GACCAAUCUGCCCUCAGAGGUCGAGAACAUCUUCGGAUGCAGAGGAGGCAGGCUUCGGUGGCGCGAUAGCGCCAACGUCCUCAACCUCCAAUGCAUCCCACCACAUGAUGACGCCUGAAGAGCCUUGGUUUUUUG [C20G U112C] | -2.48 |
| GACCAAUCUGCCCUCAGAGGUCGAGAACAUCUUCGGAUGCAGAGGAGGCAGGCUUCGGUGGCGCGAUAGCGCCAACGUCCUCAACCUCCAAUGCAUCCCACCACAUGAUGAUGCCUCAAGAGCCUUGGUUUUUUG [C20G G117C] | -5.4 |
| GACCAAUCUGCCCUCAGAGGUCGAGAACAUCUUCGGAUGCAGACGAGGCAGGCUUCGGUGGCGCGAUAGCGGCAACGUCCUCAACCUCCAAUGCGUCCCACCACAUGAUGAUGCCUGAAGAGCCUUGGUUUUUUG [C20G G44C C72G A95G] | -5.22 |
| GACCAAUCUGCCCUCAGAGGUCGAGAACAUCUUCGGAUGCAGAGGAGGCAGGCUUCGGUGGCGCGAUAGCGCCAACGUCCUCAACCUCCAAUGCAUCCCACCACAUAAUGAUGUCUGAAGAACCUUGGUUUUUUG [C20G G107A C114U G122A] | -6.03 |
| GACCAAUCUGCCCUCAGAGGUCGAGAACAUCUUCGGAUGCAGAGGAGGCCGGCUUCGGUGGCGCGAUAGCGCCAACGUCCUCAACCUCCAAUGCAUCCCACCACAUGAUGAUGCCUGAAGAGCCUUGGUUUUUUG [C20G A50C] | -6.14 |
| GACCAAUCUGCCCUCAGAGAUCGAGAACAUCUUCGGAUGCAGAGGAGGCAGGCUUCGGUGGCGCGAUAGCGCCAACGUCCUCAACCUCCAAUGCAUCCCACCACAUGAUGACGCCAGAAGAGCCUUGGUUUUUUG [C20A U112C U116A] | -3.11 |
| GACCAAUCUGCCCUCAGAGGUCGAGAACAUCUUCGGAUGCAGAGGAGACAGGCUUCGGUUGCGCGAUAGCGCCAACGUCCUCAACCUCCAAUGCAACCCACCACUUGAUUAUGCCUGUAGAGCCUUGGUUUUUUG [C20G G48A G60U U96A A105U G110U A118U] | -6.72 |
| GACCAAUCUGCCCUCAGAGGUCGAGAACAUCUUCGGGUGCAGAGGAGGCAGGCUUCGGUGGCGCGAUAUCGCCAACGUUCUCAACCUCCAAUGCAUCCCACCACAUGAUGAUGCCUCAAGAGCCUUGGUUUUUUG [C20G A37G G69U C79U G117C] | -1.73 |
| GACCAAUCUGCCCUCAGAGGUCGAGAACAUCUGGGGAUGCAGAAGUGGCAGGCUUCGGUGGCGCGAUAGCGCCAACGUCCUCAACCUCCAAUGCAUCGCACCACAUGAUCAUCCCUGAAGAGCCUUGGUUUUUUG [C20G U33G C34G G44A A46U C98G G110C G113C] | -6.24 |
| GACCAAUCUGCCCUCAGAGGUCGAGAACAUCUUCGGAUGCAGAGGAGGCAGGCUUCGGUGGCACGAUAGCGCCAACGUCCUCAACCUCCAAUGCAUCCCACCACAUGAUGAUGCCUGAAGAGCCUUGGUUUUUUG [C20G G63A] | -6.16 |
| GACCAAUCUGCCCUCAGAGGUCGAGAACAUCUUCGGAUGCAGAGGAGGCAGGCUUCGGUGGCCCGAUAGCGCCAACGUCCUCAACCUCCAAUGCAUCCCACCACAUGAUGAUGCCUGAAGAGCCUUGGUUUUUUG [C20G G63C] | -4.72 |
| GACCAAUCUGCCCUCAGAGGUCGAGAACAUCUUCGUAUGCAGAGGAGGCAGGCUUCGGUGGCGCGAUAGCGCCAACGUCCUCAACCUCCAACGCAUCCCAACACAAGAAGAUGCCUGAAGAGCCUUGGUUUUUUG [C20G G36U U92C C101A U106A U109A] | -3.02 |
| GACCAAUCUGCCCUCAGAGGUCGAGAACAUCUUCGGAUGCAGAGGAAGCAGGCUUCUGUGGCGCGAUAGCGCCAACGUCCUCAACCUCCAAUGCAUCCCACCACAUGAUGAUGCCUGAAGAGCCUUGGUUUUUUG [C20G G47A G57U] | -5.83 |
| GACCAAUCUGCCCUCAGAGGUCGAGAACAUCUUCGGAUGCAGAGGAGGCAGGUUUCGGUAGCGCGAUAGCGCCAACGUCCUCAACCUCCAAUGCAACCCACCACAUGAUGAUGCCUGAAGAGCCUUGGUUUUUUG [C20G C53U G60A U96A] | -5.21 |
| GACCAAUCUGCCCUCAGAGGUCGAGAACAUCGUCGGAUGCAGAGGAGGCAGGCUUCGGUGGCGCGAUAGCGCCAACGUCAUCAACCUCCAAUGCAUCCAACCACAUGAUGAUGCCUGAAGAGCGUUGGUUUUUUG [C20G U32G C80A C99A C124G] | -5.93 |

Reference: the RNAGym collection of RNA variant scans (doi:10.1073/pnas.2313332121)
